In patent US12702694B2, “Methods for identification, assessment, prevention, and treatment of metabolic disorders using SLIT2” (Dana-Farber Cancer Institute, Inc., priority 2015, dated 2026):

Columns and labels:
[1] = tested on: primary brown fat cells; experiment: Thermogenic gene expression in primary brown fat cells with adenoviral overexpression; type: cell-based, Mus musculus; settings: Slit2-C vs LacZ virus, day 7; FIG. 6B
Experimental: Inguinal and brown stromal-vascular fractions were obtained from 6 weeks old male or newborn mice (postnatal days 5-10) for white and brown fat cultures, respectively. Inguinal fat tissue was dissected and washed with PBS, minced and digested for 45 min at 37° C. in PBS containing 10 mM CaCl2), 2.4 U/ml dispase II (Roche) and 10 mg/ml collagenase D (Roche). Brown fat tissue was dissected, washed with PBS, minced and digested for 45 min at 37° C. in PBS containing 1.3 mM CaCl2, 123 mM NaCl, 5 mM KCl, 5.0 mM glucose, 100 mM HEPES, 4% BSA and 1.5 mg/ml collagenase B (Roche). Digested tissue was filtered through a 100-μm cell strainer and centrifuged at 600 g for 10 min. […] For adenoviral overexpression of Slit2-FL, Slit2-N, Slit2-C, LacZ or Cre, virus was added at day 2 of differentiation at a titer of 10^8 particles/well and cells were analyzed at day 6-7. […]
RNA was extracted from cultured cells or frozen tissue samples using TRIzol®, purified with QIAGEN RNeasy® minicolumns. Normalized RNA was reversed transcribed using a high-capacity cDNA reverse transcription lot (Applied Biosystems) and cDNA was analyzed by qRT-CPR. Relative mRNA levels were calculated using the comparative CT method and normalized to cyclophilin […]. […]

[2] = tested on: primary inguinal fat cells; experiment: Cellular oxygen consumption measured by Seahorse; type: cell-based, Mus musculus; settings: recombinant Slit2-C 1 ug/mL (Calico/AbbVie), acute or 2 h treatment; FIG. 13
Experimental: Tissue respiration was performed using a Clark electrode (Stathkelvin Instruments). Freshly isolated tissues were dissected from mice treated with LacZ or Slit2-C adenovirus for 7 days. Equally sized pieces of tissue were minced and placed in respiration buffer containing PBS supplemented with 2% (w/v) bovine serum albumin, 1% (w/v) glucose, and 1 mM Na pyruvate. Oxygen (O2) consumption was normalized to tissue weight. Cellular oxygen consumption rates were determined using an XF24 Extracellular Flux Analyzer (Seahorse Biosciences). Primary brown fat adipocytes were seeded at 15,000 cells/well, differentiation was induced the following day as previously described, and the cells were analyzed on day 5. On the day of analysis, the cells were washed once with Seahorse respiration buffer (8.3 g/l DMEM, 1.8 g/l NaCl, 1 mM pyruvate, 20 mM glucose, pen/strep), placed in 0.5 ml Seahorse respiration buffer, and incubated in a C02-free incubator for 1 hr. […]
As described above in Examples 5-7, in vitro and in vivo data on respiration using Slit2-C adenovirus overexpression models and loss-of-function analyses in Seahorse assays are described. In vitro confirmation of the results was determined using an alternative source of recombinant Slit2-C (FIG. 13). […] Cellular oxygen consumption rates were determined as described in Example 1 Statistical analysis was performed as described in Example 1C above.

B1: Slit2-C: ~50 kDa C-terminal cleavage fragment of Slit2 beginning at TSP (SEQ ID NO: 22); adenovirally expressed or purified FLAG-tagged protein (protein, listed as Homo sapiens)
chain: TSPCDNFDCQNGAQCIIRINEPICQCLPGYLGEKCEKLVSVNFVNKESYLQIPSAKVRPQTNITLQIATDEDSGILLYKGDKDHIAVELYRGRVRASYDTGSHPASAIYSVETINDGNFHIVELLTLDSSLSLSVDGGSPKVITNLSKQSTLNFDSPLYVGGMPGKNNVASLRQAPGQNGTSFHGCIRNLYINSELQDFRKMPMQTGILPGCEPCHKKVCAHGMCQPSSQSGFTCECEEGWMGPLCDQRTNDPCLGNKCVHGTCLPINAFSYSCKCLEGHGGVLCDEEEDLFNPCQMIKCKHGKCRLSGVGQPYCECNSGFTGDSCDREISCRGERIRDYYQKQQGYAACQTTKKVSRLECRGGCAGGQCCGPLRSKRRKYSFECTDGSSFVDEVEKVVKCGCARCAS
modifications: FLAG tag
notes: adenovirally expressed or purified FLAG-tagged protein
- thermogenic gene expression response of primary brown fat cells [1]: responded stronger
- cellular oxygen consumption vs results of Examples 5-7 [2]: confirm the results
